Experimental data: patent US20230002480A1

Columns and labels:
Assay in all cases: cell-based or functional assay
[1] = molecular target: HIV-1 Env of pseudovirus 1056_10_TA11_1826 (HIV-1)
[2] = molecular target: HIV-1 Env of pseudovirus CNE30 (HIV-1)
[3] = molecular target: HIV-1 Env of pseudovirus 191955_A11 (HIV-1)
[4] = molecular target: HIV-1 Env of pseudovirus Ce704809221_1B3 (HIV-1)
[5] = molecular target: HIV-1 Env of pseudovirus 1012_11_TC21_3257 (HIV-1)
[6] = molecular target: HIV-1 Env of pseudovirus CNE53 (HIV-1)
[7] = molecular target: HIV-1 Env of pseudovirus CNE21 (HIV-1)
[8] = molecular target: HIV-1 Env of pseudovirus 62357_14_D3_4589 (HIV-1)
[9] = molecular target: HIV-1 Env of pseudovirus TRJO4551.58 (HIV-1)
[10] = molecular target: HIV-1 Env of pseudovirus ZM135M.PL10a (HIV-1)
[11] = molecular target: HIV-1 Env of pseudovirus Ce0393_C3 (HIV-1)
[12] = molecular target: HIV-1 Env of pseudovirus Ce1176_A3 (HIV-1)
[13] = molecular target: HIV-1 Env of pseudovirus RHPA4259.7 (HIV-1)
[14] = molecular target: HIV-1 Env of pseudovirus HIV-0013095-2.11 (HIV-1)
[15] = molecular target: HIV-1 Env of pseudovirus SC05_8C11_2344 (HIV-1)
[16] = molecular target: HIV-1 Env of pseudovirus CAP210.2.00.E8 (HIV-1)
[17] = molecular target: HIV-1 Env of pseudovirus ZM214M.PL15 (HIV-1)
[18] = molecular target: HIV-1 Env of pseudovirus 249M B10 (HIV-1)
[19] = molecular target: HIV-1 Env of pseudovirus 6244_13_B5_4576 (HIV-1)
[20] = molecular target: HIV-1 Env of pseudovirus CNE52 (HIV-1)
[21] = molecular target: HIV-1 Env of pseudovirus CAP45.2.00.G3 (HIV-1)
[22] = molecular target: HIV-1 Env of pseudovirus ZM233M.PB6 (HIV-1)
[23] = molecular target: HIV-1 Env of pseudovirus 1006_11_C3_1601 (HIV-1)
[24] = molecular target: HIV-1 Env of pseudovirus TRO.11 (HIV-1)

Question: PG9 (antibody) was tested. Which IC50, titer in TZM.bl cells [1] did it give?
Answer: 6.34 µg/mL

Question: What about the IC80, titer in TZM.bl cells [1] of the same substance?
Answer: 38.3 µg/mL

Question: And the IC50, titer in TZM.bl cells [2]?
Answer: > 50 µg/mL

Question: What about the IC80, titer in TZM.bl cells [2] of the same substance?
Answer: > 50 µg/mL

Question: And the IC50, titer in TZM.bl cells [3]?
Answer: 0.053 µg/mL

Question: What about the IC80, titer in TZM.bl cells [3] of the same substance?
Answer: 0.154 µg/mL

Question: And the IC50, titer in TZM.bl cells [4]?
Answer: 0.037 µg/mL

Question: And the IC80, titer in TZM.bl cells [4]?
Answer: 0.137 µg/mL

Question: And the IC50, titer in TZM.bl cells [5]?
Answer: 0.172 µg/mL

Question: What about the IC80, titer in TZM.bl cells [5] of the same substance?
Answer: 0.605 µg/mL

Question: And the IC50, titer in TZM.bl cells [6]?
Answer: 0.131 µg/mL

Question: What about the IC80, titer in TZM.bl cells [6] of the same substance?
Answer: 0.6 µg/mL

Question: And the IC50, titer in TZM.bl cells [7]?
Answer: 0.038 µg/mL

Question: What about the IC80, titer in TZM.bl cells [7] of the same substance?
Answer: 0.094 µg/mL

Question: What about the IC50, titer in TZM.bl cells [8] of the same substance?
Answer: > 50 µg/mL

Question: And the IC80, titer in TZM.bl cells [8]?
Answer: > 50 µg/mL

Question: What about the IC50, titer in TZM.bl cells [9] of the same substance?
Answer: 0.503 µg/mL

Question: What about the IC80, titer in TZM.bl cells [9] of the same substance?
Answer: 4.06 µg/mL

Question: What about the IC50, titer in TZM.bl cells [10] of the same substance?
Answer: 20.6 µg/mL

Question: What about the IC80, titer in TZM.bl cells [10] of the same substance?
Answer: > 50 µg/mL

Question: And the IC50, titer in TZM.bl cells [11]?
Answer: 0.02 µg/mL

Question: What about the IC80, titer in TZM.bl cells [11] of the same substance?
Answer: 0.055 µg/mL

Question: What about the IC50, titer in TZM.bl cells [12] of the same substance?
Answer: 14 ng/mL

Question: And the IC80, titer in TZM.bl cells [12]?
Answer: 0.044 µg/mL

Question: What about the IC50, titer in TZM.bl cells [13] of the same substance?
Answer: 22.6 µg/mL

Question: And the IC80, titer in TZM.bl cells [13]?
Answer: > 50 µg/mL

Question: And the IC50, titer in TZM.bl cells [14]?
Answer: 10 ng/mL

Question: What about the IC80, titer in TZM.bl cells [14] of the same substance?
Answer: 0.03 µg/mL

Question: And the IC50, titer in TZM.bl cells [15]?
Answer: 0.892 µg/mL

Question: And the IC80, titer in TZM.bl cells [15]?
Answer: 4.28 µg/mL

Question: What about the IC50, titer in TZM.bl cells [16] of the same substance?
Answer: 0.04 µg/mL

Question: What about the IC80, titer in TZM.bl cells [16] of the same substance?
Answer: 0.173 µg/mL

Question: And the IC50, titer in TZM.bl cells [17]?
Answer: > 50 µg/mL

Question: And the IC80, titer in TZM.bl cells [17]?
Answer: > 50 µg/mL

Question: And the IC50, titer in TZM.bl cells [18]?
Answer: 0.095 µg/mL

Question: What about the IC80, titer in TZM.bl cells [18] of the same substance?
Answer: 0.29 µg/mL

Question: What about the IC50, titer in TZM.bl cells [19] of the same substance?
Answer: > 50 µg/mL

Question: What about the IC80, titer in TZM.bl cells [19] of the same substance?
Answer: > 50 µg/mL

Question: And the IC50, titer in TZM.bl cells [20]?
Answer: 0.029 µg/mL

Question: What about the IC80, titer in TZM.bl cells [20] of the same substance?
Answer: 0.081 µg/mL

Question: What about the IC50, titer in TZM.bl cells [21] of the same substance?
Answer: 7 ng/mL

Question: What about the IC80, titer in TZM.bl cells [21] of the same substance?
Answer: 0.029 µg/mL

Question: And the IC50, titer in TZM.bl cells [22]?
Answer: 10 ng/mL

Question: What about the IC80, titer in TZM.bl cells [22] of the same substance?
Answer: 0.026 µg/mL

Question: And the IC50, titer in TZM.bl cells [23]?
Answer: 0.366 µg/mL

Question: What about the IC80, titer in TZM.bl cells [23] of the same substance?
Answer: 1.91 µg/mL

Question: What about the IC50, titer in TZM.bl cells [24] of the same substance?
Answer: 43.2 µg/mL

Question: And the IC80, titer in TZM.bl cells [24]?
Answer: > 50 µg/mL

Question: PG16 (antibody) was tested. Which IC50, titer in TZM.bl cells [1] did it give?
Answer: 0.315 µg/mL

Question: And the IC80, titer in TZM.bl cells [1]?
Answer: 1.95 µg/mL

Question: And the IC50, titer in TZM.bl cells [2]?
Answer: > 50 µg/mL

Question: And the IC80, titer in TZM.bl cells [2]?
Answer: > 50 µg/mL

Question: What about the IC50, titer in TZM.bl cells [3] of the same substance?
Answer: 0.009 µg/mL

Question: And the IC80, titer in TZM.bl cells [3]?
Answer: 0.042 µg/mL

Question: And the IC50, titer in TZM.bl cells [4]?
Answer: 0.021 µg/mL

Question: And the IC80, titer in TZM.bl cells [4]?
Answer: 0.116 µg/mL

Question: And the IC50, titer in TZM.bl cells [5]?
Answer: 0.03 µg/mL

Question: And the IC80, titer in TZM.bl cells [5]?
Answer: 0.219 µg/mL

Question: What about the IC50, titer in TZM.bl cells [6] of the same substance?
Answer: > 50 µg/mL

Question: And the IC80, titer in TZM.bl cells [6]?
Answer: > 50 µg/mL

Question: What about the IC50, titer in TZM.bl cells [7] of the same substance?
Answer: 0.007 µg/mL

Question: And the IC80, titer in TZM.bl cells [7]?
Answer: 0.026 µg/mL

Question: What about the IC50, titer in TZM.bl cells [8] of the same substance?
Answer: > 50 µg/mL

Question: What about the IC80, titer in TZM.bl cells [8] of the same substance?
Answer: > 50 µg/mL

Question: And the IC50, titer in TZM.bl cells [9]?
Answer: 1.01 µg/mL

Question: What about the IC80, titer in TZM.bl cells [9] of the same substance?
Answer: 24.5 µg/mL

Question: What about the IC50, titer in TZM.bl cells [10] of the same substance?
Answer: > 50 µg/mL

Question: And the IC80, titer in TZM.bl cells [10]?
Answer: > 50 µg/mL

Question: And the IC50, titer in TZM.bl cells [11]?
Answer: 0.002 µg/mL

Question: And the IC80, titer in TZM.bl cells [11]?
Answer: 0.006 µg/mL

Question: And the IC50, titer in TZM.bl cells [12]?
Answer: 3 ng/mL

Question: What about the IC80, titer in TZM.bl cells [12] of the same substance?
Answer: 0.011 µg/mL

Question: And the IC50, titer in TZM.bl cells [13]?
Answer: 0.375 µg/mL

Question: What about the IC80, titer in TZM.bl cells [13] of the same substance?
Answer: 3.92 µg/mL

Question: And the IC50, titer in TZM.bl cells [14]?
Answer: 2 ng/mL

Question: What about the IC80, titer in TZM.bl cells [14] of the same substance?
Answer: 0.006 µg/mL

Question: And the IC50, titer in TZM.bl cells [15]?
Answer: 0.07 µg/mL

Question: What about the IC80, titer in TZM.bl cells [15] of the same substance?
Answer: 1.62 µg/mL

Question: What about the IC50, titer in TZM.bl cells [16] of the same substance?
Answer: 0.01 µg/mL

Question: And the IC80, titer in TZM.bl cells [16]?
Answer: 0.042 µg/mL

Question: And the IC50, titer in TZM.bl cells [17]?
Answer: > 50 µg/mL

Question: And the IC80, titer in TZM.bl cells [17]?
Answer: > 50 µg/mL

Question: What about the IC50, titer in TZM.bl cells [18] of the same substance?
Answer: 0.026 µg/mL

Question: What about the IC80, titer in TZM.bl cells [18] of the same substance?
Answer: 1.25 µg/mL

Question: What about the IC50, titer in TZM.bl cells [19] of the same substance?
Answer: > 50 µg/mL

Question: What about the IC80, titer in TZM.bl cells [19] of the same substance?
Answer: > 50 µg/mL

Question: And the IC50, titer in TZM.bl cells [20]?
Answer: 0.009 µg/mL

Question: And the IC80, titer in TZM.bl cells [20]?
Answer: 0.026 µg/mL

Question: What about the IC50, titer in TZM.bl cells [21] of the same substance?
Answer: 1 ng/mL

Question: And the IC80, titer in TZM.bl cells [21]?
Answer: 0.003 µg/mL

Question: What about the IC50, titer in TZM.bl cells [22] of the same substance?
Answer: 2 ng/mL

Question: What about the IC80, titer in TZM.bl cells [22] of the same substance?
Answer: 0.006 µg/mL

Question: What about the IC50, titer in TZM.bl cells [23] of the same substance?
Answer: > 50 µg/mL

Question: And the IC80, titer in TZM.bl cells [23]?
Answer: > 50 µg/mL

Question: And the IC50, titer in TZM.bl cells [24]?
Answer: 1.92 µg/mL

Question: And the IC80, titer in TZM.bl cells [24]?
Answer: 49.6 µg/mL
